Results: patent US6632625 (MERCK, dated 2003)

Biological target: T1, recombinant human leptin (human, UniProt P41159 22-167, 125I label on the tracer form (125I-leptin, NEN); position not stated)
T1 construct: also called recombinant leptin; 125I-leptin
Test: 125I-leptin binding on transfected COS cells

T1 sequence (P41159 22-167 limits assumed): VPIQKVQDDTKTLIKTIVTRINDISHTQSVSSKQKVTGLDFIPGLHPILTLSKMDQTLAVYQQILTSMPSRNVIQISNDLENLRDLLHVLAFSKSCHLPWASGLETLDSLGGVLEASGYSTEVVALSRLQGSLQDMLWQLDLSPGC

binding result: no binding (tested: 0.2 nM)
B1: substitution mutant (420-496)TO(500-632) of the human OB-R (receptor)
chain: FNLSYPITPWRFKLSCMPPNSTYDYFLLPAGLSKNTSNSNGHYETAVEPKFNSSGTHFSNLSKTTFHCCFRSEQDRNCSLCADNIEGKTFVSTVNSLVFQQIDANWNIQCWLKGDLKLFICYVESLFKNLFRNYNYKVHLLYVLPEVLEDSPLVPQKGSFQMVHCNCSVHECCECLVPVPTAKLNDTLLMCLKITSGGVIFQSPLMSVQPINMVKPDPPLGLHMEITDDGNLKISWSSPPLVPFPLQYQVKYSENSTTVIREADKIVSATSLLVDSILPGSSYEVQVRGKRLDGPGIWSDWSTPRVFTTQDVIYFPPKILTSVGSNVSFHCIYKKENKIVPSKEIVWWMNLAEKIPQSQYDVVSDHVSKVTFFNLNETKPRGKFTYDAVYCCNEHECHFQPIFLLSGYTMWIRINHSLGSLDSPPTCVLPDSVVKPLPPSSVKAEITINIGLLKISWEKPVFPENNLQFQIRYGLSGKEVQWKMYEVYDAKSKSVSLPVPDLCAVYAVQVRCKRLDGLGYWSNWSNPAYTVECIFQPIFLLSGYTMWIRINHSLGSLDSPPTCVLPDSVVKPLPPSSVKAEITINIGLLKISWEKPVFPENNLQFQIRYGLSGKEVQWKMYEVYDAKSKSVSLPVPDLCAVYAVQVRCKRLDGLGYWSNWSNPAYTVVMDIKVPMRGPEFWRIINGDTMKKEKNVTLLWKPLMKNDSLCSVQRYVINHHTSCNGTWSEDVGNHTKFTFLWTEQAHTVTVLAINSIGASVANFNLTFSWPMSKVNIVQSLSAYPLNSSCVIVSWILSPSDYKLMYFIIEWKNLNEDGEIKWLRISSSVKKYYIHDHFIPIEKYQFSLYPIFMEGVGKPKIINSFTQDDIEKHQSDAGLYVIVPVIISSSILLLGTLLISHQRMKKLFWEDVPNPKNCSWAQGLNFQKPETFEHLFIKHTASVTCGPLLLEPETISEDISVDTSWKNKDEMMPTTVVSLLSTTDLEKGSVCISDQFNSVNFSEAEGTEVTYEAESQRQPFVKYATLISNSKPSETGEEQGLINSSVTKCFSSKNSPLKDSFSNSSWEIEAQAFFILSDQHPNIISPHLTFSEGLDELLKLEGNFPEENNDKKSIYYLGVTSIKKRESGVLLTDKSRVSCPFPAPCLFTDIRVLQDSCSHFVENNINLGTSSKKTFASYMPQFQTCSTQTHKIMENKMCDLTV
